Consider one substance from patent publication US7109170B2, “Region of factor IXa protease domain that interacts with factor VIIIa and methods therefor” (Saint Louis University, priority 1999, dated 2006).

For test [1], the target named is T1, factor X (Homo sapiens, UniProt P00742). Briefly: factor X activation by IXa proteins, Ca2+ and VIIIa, no phospholipid. The test is classed as biochemical. Further details: Normal human plasma factor IX (IXNP) and factor X were isolated as described in Bajaj and Birktoft; from tissue; host or cells: human plasma (factor X); factor VIII obtained from Dr. Leon Hoyer, American Red Cross. The following applies: 14 nM VIIIa, 400 nM factor X. As to the method:
(§1) The ability of each activated mutant to activate factor X in the presence and absence of phospholipid and factor VIIIa was determined as follows. The activation was carried out at 37° C. in a 50 μl reaction volume, in TBS/BSA pH 7.4, for various time periods. At the end of the incubation time period, each reaction mixture received 1 μl of 0.5 M EDTA to stop further generation of factor Xa. A 40 μL aliquot was then added to 0.1 ml quartz cuvette containing S-2222 in 75 μL of TBS/BSA, pH 7.4. The final concentration of S-2222 was 100 μM. The p-nitroaniline release was measured continuously (ΔA405/min) for up to 20 min (Sabharwal et al., 1995 supra; Sabharwal et al., 1997, supra). Factor Xa generated was calculated from a standard curve constructed using factor Xa prepared from insolubilized Russell's viper venom.
(§2) Factor X activation measurements were made under four experimental regimes. In one, Ca^2+ and phospholipid were present. In this system activation was carried out for 5–15 minutes and the concentration of each IXa protein was 20 nM, phospholipid was 25 μM, and factor X was 100 nM. In the second regime, Ca^2+, phospholipid and factor VIIIa were present. […] In the third regime, only Ca^2+ was present. Here, activation was carried out for 2–20 min and concentration of each IXa protein was 400 nM and factor X was 1 μM. Finally, in the fourth regime, Ca^2+ and VIIIa were present. Here, activation was carried out for 15–120 sec and the concentration of each IXa protein was 2 μM, VIIIa was 14 nM, and factor X was 400 nM.
(§3) In all of the above factor X activation experiments, the incubation times chosen were those in which the factor Xa generated was always less than 10 nM. This precautionary measure was taken to prevent activation of factor X by the generated factor Xa (see, e.g., Link. and Castellino, 1982, Arch Biochem. Biophys. 215, 215–221). Further, in those incubation mixtures which contained […], control experiments were also performed in which factor VIIIa was omitted. […] In the presence of factor VIIIa, 10 μM phospholipid was used based upon previous observations (Mathur et al., 1997, supra; van Dieijen et al., 1981, J. Biol. Chem. 256, 3433–3442). The concentrations of factor X selected for each set of reaction conditions are those which are below or at the Km values (van Dieijen et al., supra; Fay and Koshibu, 1998, J Biol. Chem. 273, 19049–19054). In this region of the Michaelis-Menton curve, the rate of formation of factor Xa is proportional to the substrate factor X and therefore to the affinity of the factor IXa enzyme for factor X.

The target of test [2] is T1, factor X. Briefly: factor X activation in complete intrinsic Tenase system (IXa, Ca2+, phospholipid, VIIIa). The test is classed as biochemical. Further details: Normal human plasma factor IX (IXNP) and factor X were isolated as described in Bajaj and Birktoft; from tissue; host or cells: human plasma (factor X); factor VIII obtained from Dr. Leon Hoyer, American Red Cross. The following applies: 70 pM VIIIa, 0.5 nM IXa, 15 nM X, phospholipid present. As to the method: as §1, §2, §3
Next, the activation of factor X in a complete intrinsic Tenase system (IXa, Ca^2+, phospholipid, VIIIa) was studied.

T1 sequence (P00742 183-488 limits assumed): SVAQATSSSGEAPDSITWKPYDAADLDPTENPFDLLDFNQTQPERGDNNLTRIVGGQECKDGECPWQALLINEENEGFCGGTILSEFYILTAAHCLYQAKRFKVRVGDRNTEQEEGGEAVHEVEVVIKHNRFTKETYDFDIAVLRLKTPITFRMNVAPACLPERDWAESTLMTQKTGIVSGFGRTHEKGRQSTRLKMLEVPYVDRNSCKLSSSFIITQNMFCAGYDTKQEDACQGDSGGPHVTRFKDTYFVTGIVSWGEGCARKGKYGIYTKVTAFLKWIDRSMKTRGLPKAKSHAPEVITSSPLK
T1 sequence (P00742 41-179 limits assumed): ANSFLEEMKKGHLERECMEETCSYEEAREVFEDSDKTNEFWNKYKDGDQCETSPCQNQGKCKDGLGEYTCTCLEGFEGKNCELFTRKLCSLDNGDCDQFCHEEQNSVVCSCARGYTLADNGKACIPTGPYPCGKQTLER
T1 sequence (P00451 20-759 partner limits assumed): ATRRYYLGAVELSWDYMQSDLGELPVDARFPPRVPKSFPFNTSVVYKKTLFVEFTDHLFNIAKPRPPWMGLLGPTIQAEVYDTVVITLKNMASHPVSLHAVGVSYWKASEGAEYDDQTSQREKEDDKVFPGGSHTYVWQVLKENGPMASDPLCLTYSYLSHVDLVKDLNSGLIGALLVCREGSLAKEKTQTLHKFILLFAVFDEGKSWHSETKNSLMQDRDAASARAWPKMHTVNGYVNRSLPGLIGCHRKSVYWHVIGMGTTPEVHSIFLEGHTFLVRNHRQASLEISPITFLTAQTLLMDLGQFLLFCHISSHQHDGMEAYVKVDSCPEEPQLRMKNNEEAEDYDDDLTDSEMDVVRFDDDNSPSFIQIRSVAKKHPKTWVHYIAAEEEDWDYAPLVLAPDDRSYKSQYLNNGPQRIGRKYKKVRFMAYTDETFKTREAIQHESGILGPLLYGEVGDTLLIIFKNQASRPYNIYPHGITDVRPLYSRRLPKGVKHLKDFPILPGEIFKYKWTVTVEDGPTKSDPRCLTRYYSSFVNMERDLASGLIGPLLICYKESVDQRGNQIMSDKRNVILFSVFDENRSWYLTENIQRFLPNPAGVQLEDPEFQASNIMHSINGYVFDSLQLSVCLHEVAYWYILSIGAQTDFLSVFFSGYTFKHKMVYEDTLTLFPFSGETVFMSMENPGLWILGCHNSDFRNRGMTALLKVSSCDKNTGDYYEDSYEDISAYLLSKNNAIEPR
T1 sequence (P00451 1668-2351 partner limits assumed): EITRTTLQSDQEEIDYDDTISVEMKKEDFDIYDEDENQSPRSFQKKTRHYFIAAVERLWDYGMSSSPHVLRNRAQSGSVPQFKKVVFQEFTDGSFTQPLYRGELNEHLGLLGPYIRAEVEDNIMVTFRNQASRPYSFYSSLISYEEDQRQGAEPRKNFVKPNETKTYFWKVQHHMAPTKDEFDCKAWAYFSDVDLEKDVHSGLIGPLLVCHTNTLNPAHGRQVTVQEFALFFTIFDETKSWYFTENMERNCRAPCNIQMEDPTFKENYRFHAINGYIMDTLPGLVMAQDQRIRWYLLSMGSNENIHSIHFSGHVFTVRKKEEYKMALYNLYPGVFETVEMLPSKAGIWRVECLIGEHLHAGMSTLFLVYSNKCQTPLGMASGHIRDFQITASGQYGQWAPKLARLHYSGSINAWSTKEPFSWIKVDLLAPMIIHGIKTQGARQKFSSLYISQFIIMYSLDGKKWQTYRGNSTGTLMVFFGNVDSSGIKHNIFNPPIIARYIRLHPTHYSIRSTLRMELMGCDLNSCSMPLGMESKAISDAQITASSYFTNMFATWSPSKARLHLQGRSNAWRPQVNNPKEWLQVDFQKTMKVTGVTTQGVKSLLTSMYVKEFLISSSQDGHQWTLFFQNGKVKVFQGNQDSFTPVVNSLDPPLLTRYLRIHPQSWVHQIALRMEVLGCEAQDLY

Consider “IXaV331A: activated factor IX mutant V331A”, for which, in test [1], the “X-activation rate, PL-minus system” value worked out at 0.54 ± 0.02 nM/min. The “X-activation rate, PL-plus system” value in test [2] is 0.55 ± 0.04 nM/min.
